# Source: patent publication US11497788B2, “Supramolecular glycosaminoglycans” (Northwestern University, priority 2015, dated 2022)
# Legend:
# BMP-2 = target: T1, BMP-2 (Homo sapiens, UniProt P12643); experiment: Confocal fluorescence imaging of Cy5-labeled BMP-2 with PA nanofibers; format: binding; conditions: co-assembled with Cy3-PA 5 mol %; mixed 24 h
# T1 construct: purchased Medtronic Sofamor Danek (Minneapolis, Minn.)
# T1 sequence (P12643 283-396): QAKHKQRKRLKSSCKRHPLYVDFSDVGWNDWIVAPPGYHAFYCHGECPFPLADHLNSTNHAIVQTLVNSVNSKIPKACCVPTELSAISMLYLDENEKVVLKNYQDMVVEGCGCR
# Protocol: Confocal Fluorescence Imaging: PA 1, PA 4, and Cy3-PA were dissolved to 6.6 mM in saline with 6.6 mM CaCl2, pH 7.2. […] Following, PA solutions were mixed with Cy5-BMP-2 (57 μM) at 10:1 vol. ratio to yield [PA]=6 mM and [BMP-2]=5.2 μM, and incubated overnight. For confocal imaging, 20 μl of the solutions containing Cy5-labeled protein and Cy3-Labeled PA nanofibers were coverslipped in IMMU-MOUNT (Termo Scientific) and visualized using a Nikon A1R confocal laser-scanning microscope with GaAsP detectors.
# [1] = Zeta potential measurements; format: physicochemical
# Protocol: Zeta Potential Measurements: Zeta (ζ) potential was measured using a Malvern Zetasizer Nano ZS (n=3). PA samples were thermally annealed as described for Cryo-TEM. Following, PAs were diluted to 0.5 mM in DMEM. PA solutions were water-bath sonicated for 1 min prior to zeta potential measurement. Background reading from DMEM alone was subtracted from the final measurements.
# [2] = tested on: ALP and Osteocalcin (OCN) gene expression in C2C12 cells; experiment: Quantitative RT-PCR of ALP and Osteocalcin in C2C12 cells; format: cell-based, mouse; conditions: relative to heparin or PA nanofibers displaying uncharged GlcNAc; day 3
# Protocol: C2C12 Cell Culture: C2C12 mouse myoblasts (ATCC) were maintained in Dulbecco's Modified Eagle's Medium with high glucose and L-glutamine (DMEM, ATCC), supplemented with 100 U/mL of penicillin and 100 μg/mL streptomycin (P/S, Life Technologies) and 10% heat inactivated FBS (Life Technologies), and passaged at 80-90% confluence. Media was changed every 2 days. Passages 3 to 8 were used for experiments. Cells were grown at 37° C., 5% CO2 in a humidified atmosphere. Cells were detached following a 3 minute incubation at 37° C. with 0.05% Trypsin-EDTA (Life Technologies), then resuspended in DMEM (10% FBS). Unless stated otherwise, cells were seeded at 75,000 cells/mL (400 μL/well in a 48-well plate), and allowed to attach for a minimum of 3 hours prior to experiments.
# C2C12 Osteoblast Differentiation: PA samples were thermally annealed as described for Cryo-TEM. […] Cells were cultured for 3 days without changing the media, and osteoblast differentiation was assessed.
# Quantitative RT-PCR: The gene expression levels were determined by real-time, reverse-transcription-PCR using an iQ5 Real-Time PCR Detection System (Bio-Rad). […] To confirm the specificity of the amplified products, melting curves were performed by cooling samples at 55° C. for 30 s and then increasing the temperature to 94° C. at 0.5° C./sec with continuous fluorescence measurement. […]
substance,measurement,setting,value
"3,4,6S-GlcNAc PA (VVAAEEK) [PA 1, glycosylated peptide amphiphile: Alkyne PA click-conjugated with trisulfated monosaccharide 1]",colocalization of Cy5-labeled BMP-2 with PA nanofibers,BMP-2,strong colocalization
same,zeta potential / net charge of nanofibers,[1],highest net negative charge
same,ALP mRNA expression,[2],higher expressions
same,osteocalcin mRNA expression,[2],higher expressions
